From patent publication US20250320305A1 (Hoffmann-La Roche, published 2025)
Numbering of substitutions follows the chain as printed. In names and notes the source's numbering stands. Blank lines part the entries; values can stand above or below the binder they belong to.

Tests used:
[1] = molecular target: T1, human CD40 expressed on cells (human, UniProt P25942 21-277); assay: cell-based or functional assay
[2] = molecular target: T2, human Fibroblast Activation Protein (FAP) expressed on cells (human, UniProt Q12884 1-760); assay: flow cytometry, NIH/3T3-huFAP cells
T2 construct: Cell-surface human FAP on transfected HEK or NIH/3T3 cells; also called huFAP; human FAP-transfected HEK cells
Method: (§1) Plates were centrifuged 5 minutes at 1700 rpm and supernatants were flicked off. […] All samples were resuspended in 50 μL/well of 4° C. cold FACS buffer containing the bispecific antigen binding molecules (primary antibody) or the isotype control antibody DP47 at the indicated range of concentrations (in duplicates) and incubated for 120 minutes at 4° C. Afterwards the cells were washed three times with 200 μL 4° C. cold FACS buffer. […] Data analysis was performed using the FlowJo version 10 software (FlowJo LLC).

[3] = molecular target: T1, human CD40 expressed on cells; assay: flow cytometry, primary human B cells
Method: as §1

[4] = molecular target: T3, His-tagged human FAP ectodomain (human, UniProt Q12884 27-760); assay: SPR, His-tagged human FAP ectodomain as ligand
T3 construct: also called hu FAP ectodomain+poly-lys-tag+his6-tag; His-tagged FAP antigen

[5] = molecular target: T4, biotinylated recombinant human FAP (human, UniProt Q12884 26-760, biotinylated); assay: SPR (Biacore), biotinylated huFAP on CAPture chip, Fab analyte
T4 construct: also called biotinylated human FAP
Method: As running and dilution buffer, HBS-P+ (10 mM HEPES, 150 mM NaCl pH 7.4, 0.05% Surfactant P20) was used. A dilution series of anti-huFAP Fabs (3.7-300 nM, 1:3 dilution) was successively injected for 120 s each, dissociation was monitored for 1800 s at a flow rate of 30 μl/min (single cycle kinetics). The surface was regenerated by injecting 6 M guanidine-HCl, 0.25 M NaOH for 120 s. Bulk refractive index differences were corrected by subtracting blank injections and by subtracting the response obtained from the control flow cell without captured human FAP. Curve fitting was performed using the 1:1 Langmuir binding model within the Biacore evaluation software.

[6] = molecular target: T4, biotinylated recombinant human FAP; assay: SPR (Biacore), biotinylated recombinant human FAP
[7] = molecular target: T5, human DPP-IV expressed on transfected HEK cells (human, UniProt P27487 1-766); assay: flow cytometry, human DPPIV-transfected HEK cells
T5 construct: whole, on cells; also called dipeptidyl peptidase IV
Method: Binding to human FAP and human DPP-IV was determined by flow cytometry using human FAP or human DPPIV-transfected HEK cells. Briefly, the target cells were harvested with Cell Dissociation buffer, washed with FACS Buffer (PBS+2% FCS+5 mM EDTA+0.25% sodium acide) and seeded into 96-U bottom plates (1×10⁵ cells/well). Unlabeled primary antibodies were added to the cells (final concentration 10 μg/ml) and incubated for 30 min at 4° C. After washing, cells were incubated with a goat anti-mouse IgG-PE F(ab′)₂ (Serotec) for 30 min at 4° C. in the dark. Afterwards, cells were washed, fixed and measured using a BD FACS Canto™ II.

[8] = molecular target: T2, human Fibroblast Activation Protein …; assay: flow cytometry, human FAP-transfected HEK cells
Method: (§2) The binding of anti-FAP antibodies with a human IgG1 P329G LALA Fc to human FAP was determined by flow cytometry using human FAP-transfected HEK cells. Briefly, the target cells were harvested with Cell Dissociation buffer, washed with FACS Buffer (PBS+2% FCS+5 mM EDTA+0.25% sodium acide) and seeded into 96-U bottom plates (1×10^5 cells/well). Unlabeled primary antibodies were added to the cells (final concentrations 10 μg/ml to 0.64 ng/ml; 1:5 dilutions) and incubated for 30 min at 4° C. After washing, cells were incubated with a PE-conjugated AffiPure F(ab)₂ Fragment Goat anti-human IgG, Fc□ specific (Jackson Immunoresearch) for 30 min at 4° C. in the dark. Afterwards, cells were washed, fixed and measured using a BD FACS LSR Fortessa™.

[9] = molecular target: T2, human Fibroblast Activation Protein …; assay: flow cytometry, huFAP-transfected HEK cells
Method: as §2

[10] = molecular target: biotinylated recombinant cynomolgus FAP (cynomolgus); assay: SPR (Biacore), biotinylated recombinant cynomolgus FAP
[11] = molecular target: T6, cynomolgus FAP expressed on cells (cynomolgus); assay: flow cytometry, cells expressing cynomolgus FAP
T6 construct: whole, on cells

T5 sequence (P27487 whole entry): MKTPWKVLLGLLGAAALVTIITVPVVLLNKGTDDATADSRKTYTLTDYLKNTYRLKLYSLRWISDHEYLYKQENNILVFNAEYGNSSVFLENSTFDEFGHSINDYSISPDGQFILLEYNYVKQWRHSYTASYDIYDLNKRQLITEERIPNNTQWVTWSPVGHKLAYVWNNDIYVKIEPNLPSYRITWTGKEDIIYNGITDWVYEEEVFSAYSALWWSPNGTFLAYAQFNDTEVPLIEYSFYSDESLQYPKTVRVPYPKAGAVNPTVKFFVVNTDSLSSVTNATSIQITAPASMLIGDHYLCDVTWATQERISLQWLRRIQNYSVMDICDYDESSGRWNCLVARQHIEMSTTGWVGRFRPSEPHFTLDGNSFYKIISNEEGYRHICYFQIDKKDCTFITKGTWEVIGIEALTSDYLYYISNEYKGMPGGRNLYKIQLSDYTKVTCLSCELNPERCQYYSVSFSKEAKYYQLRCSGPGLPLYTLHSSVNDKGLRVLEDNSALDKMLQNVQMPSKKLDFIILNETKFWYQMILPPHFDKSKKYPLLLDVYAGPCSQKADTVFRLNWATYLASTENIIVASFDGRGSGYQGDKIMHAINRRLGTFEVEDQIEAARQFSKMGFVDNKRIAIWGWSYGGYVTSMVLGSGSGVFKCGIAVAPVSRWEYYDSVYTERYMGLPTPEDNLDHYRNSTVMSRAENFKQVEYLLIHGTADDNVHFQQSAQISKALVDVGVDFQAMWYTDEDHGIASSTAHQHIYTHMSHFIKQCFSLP

- EC50, two cell line bridging assay (SEAP of HEK-Blue CD40L reporter cells with FAP-expressing WM-266-4 cells) [1]: 0.0032 nM
- EC50 [2]: 5.19 nM
- EC50 [3]: 0.095 nM
- Kd [4]: 0.094 nM
- koff [4]: 3.2e-05 s⁻¹
- kon [4]: 340000 M⁻¹ s⁻¹
B1: P1AE2423, CD40 (P1AE0817) x FAP (P1AE1689) (2+1) C-terminal crossfab fusion (bispecific antibody, human IgG1, kappa, L234A L235A)
light 1: QVQLVQSGAEVKKPGASVKVSCKASGYTLTDYNMDWVRQAPGQGLEWIGDIYPNTGGTIYNQKFKGRVTMTIDTSTSTVYMELSSLRSEDTAVYYCTRFRGIHYAMDYWGQGTTVTVSSASVAAPSVFIFPPSDEQLKSGTASVVCLLNNFYPREAKVQWKVDNALQSGNSQESVTEQDSKDSTYSLSSTLTLSKADYEKHKVYACEVTHQGLSSPVTKSFNRGEC
light 2: DIVMTQTPLSLSVTPGQPASISCRSSQSLVHSNGNTFLHWYLQKPGQSPQLLIYTVSNRFSGVPDRFSGSGSGTDFTLKISRVEAEDVGVYFCSQTTHVPWTFGGGTKVEIKRTVAAPSVFIFPPSDRKLKSGTASVVCLLNNFYPREAKVQWKVDNALQSGNSQESVTEQDSKDSTYSLSSTLTLSKADYEKHKVYACEVTHQGLSSPVTKSFNRGEC
heavy 1: not shown
heavy 2: QVQLVQSGAEVKKPGASVKVSCKASGYSFTGYYIHWVRQAPGQSLEWMGRVIPNAGGTSYNQKFKGRVTLTVDKSISTAYMELSRLRSDDTAVYYCAREGIYWWGQGTTVTVSSASTKGPSVFPLAPSSKSTSGGTAALGCLVEDYFPEPVTVSWNSGALTSGVHTFPAVLQSSGLYSLSSVVTVPSSSLGTQTYICNVNHKPSNTKVDEKVEPKSCDKTHTCPPCPAPEAAGGPSVFLFPPKPKDTLMISRTPEVTCVVVDVSHEDPEVKFNWYVDGVEVHNAKTKPREEQYNSTYRVVSVLTVLHQDWLNGKEYKCKVSNKALGAPIEKTISKAKGQPREPQVCTLPPSRDELTKNQVSLSCAVKGFYPSDIAVEWESNGQPENNYKTTPPVLDSDGSFFLVSKLTVDKSRWQQGNVFSCSVMHEALHNHYTQKSLSLSPG
notes: bivalent for CD40, monovalent for FAP; also called VL-CH1 fused to Fc

- EC50 [3]: 0.086 nM
B2: P1AE2487, CD40 (P1AE0817) x FAP (4B9) (2+1) C-terminal crossfab fusion (bispecific antibody, human IgG1, kappa, L234A L235A)
light 1: EIVLTQSPGTLSLSPGERATLSCRASQSVTSSYLAWYQQKPGQAPRLLINVGSRRATGIPDRFSGSGSGTDFTLTISRLEPEDFAVYYCQQGIMLPPTFGQGTKVEIKSSASTKGPSVFPLAPSSKSTSGGTAALGCLVKDYFPEPVTVSWNSGALTSGVHTFPAVLQSSGLYSLSSVVTVPSSSLGTQTYICNVNHKPSNTKVDKKVEPKSC
light 2: B1 light 2 with R128E, K129Q
heavy 1: not shown
heavy 2: B1 heavy 2 with E144K, E210K
notes: bivalent for CD40, monovalent for FAP; also called CD40 x FAP (4B9) 2+1 crossfab

- Kd [5]: < 0.01 nM
- koff [5]: < 1e-06 s⁻¹
- kon [5]: 1.06e+06 M⁻¹ s⁻¹
- Kd [6]: 0.12 nM
B3: P1AD9438_Fab (clone 212 Fab) (Fab, V domains shown)
VH: EVLLQQSGPELVKPGASVKIACKASGYTLTDYNMDWVRQSHGKSLEWIGDIYPNTGGTIYNQKFKGKATLTIDKSSSTAYMDLRSLTSEDTAVYYCTRFRGIHYAMDYWGQGTSVTVSS
VL: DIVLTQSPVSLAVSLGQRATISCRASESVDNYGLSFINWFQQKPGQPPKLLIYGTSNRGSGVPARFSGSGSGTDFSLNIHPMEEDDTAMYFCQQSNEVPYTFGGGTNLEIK
notes: Fab

- binding result [7]: no binding (tested: 10 µg/ml)
B4: murine anti-human FAP antibody clone 212 (hybridoma-derived) (antibody, IgG1, V domains shown)
VH: B3 VH
VL: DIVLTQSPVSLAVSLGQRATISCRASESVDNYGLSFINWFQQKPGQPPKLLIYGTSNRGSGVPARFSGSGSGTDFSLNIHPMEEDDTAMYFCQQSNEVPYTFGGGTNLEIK
notes: mu IgG1

- EC50 [8]: 0.12 mg/L
- EC50 [9]: 0.118 mg/L
- Kd [10]: 0.14 nM
- EC50 [11]: 0.3 mg/L
B5: P1AD9438, anti-FAP clone 212 as huIgG1 P329G LALA (antibody, V domains shown)
VH: B3 VH
VL: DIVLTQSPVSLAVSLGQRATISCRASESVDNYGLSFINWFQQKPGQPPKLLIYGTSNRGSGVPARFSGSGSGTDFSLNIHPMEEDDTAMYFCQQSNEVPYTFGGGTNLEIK
